Results taken from paper PMC11217727.

What was measured:
[1] = biological target: FGFR3 S249C stably expressed in FaDu head and neck cancer cells (human) (UniProt P22607); assay: nonreducing SDS-PAGE with Western blot
[2] = biological target: FGFR3 S249C stably expressed in BaF3 cells (human) (UniProt P22607); assay: nonreducing SDS-PAGE with Western blot

Substance | percent of FGFR3 present as dimer [1] [%] | percent of FGFR3 present as dimer [2] [%]
FGFR3 S249C stably expressed in FaDu head and neck cancer cells (from UniProt P22607 23-806) (receptor) | 70 | –
FGFR3 S249C stably expressed in BaF3 cells (from UniProt P22607 23-806) (receptor) | – | 6
